Laboratory results from patent US20250186597A1, “TARGETED IMMUNE ACTIVATION WITH IL-18 IMMUNOCYTOKINES” (BRIGHT PEAK THERAPEUTICS AG, priority 2023, published 2025).

Key:
human PD-1/CD279 = biological target: T1, human PD-1/CD279 (Homo sapiens, UniProt Q15116); assay: PD-1 binding ELISA assay (Example 5); settings: biotinylated human PD-1
T1 construct: purchased Biolegend #789406
Protocol: (§1) The interaction of the unmodified antibodies and corresponding IL-18 immunocytokines with relevant immune cell associated antigen are measured by ELISA assay. For these studies, Corning high-binding half-area plates (Fisher Scientific, Reinach, Switzerland) are coated overnight at 4° C. with 25 μl of unmodified antibodies corresponding IL-18 immunocytokines at […] in PBS. […] Plate surfaces are blocked with 25 μl of PBS-0.02% Tween20-1% BSA at 37° C. during 1 h. […] ELISA signal is then measured at 450 nm on an ENSPIRE® plate reader from Perkin Elmer (Schwerzenbach, Switzerland).

[1] = biological target: T2, human Fc gamma receptors IIa (FcγRIIa/CD32a) (Homo sapiens, UniProt P12318); assay: Human FcγR binding ELISA, FcγRIIa/CD32a (Example 8); settings: ELISA binding affinity
T2 construct: purchased R&D systems 9595-CD-050
T2 sequence (P12318 34-317): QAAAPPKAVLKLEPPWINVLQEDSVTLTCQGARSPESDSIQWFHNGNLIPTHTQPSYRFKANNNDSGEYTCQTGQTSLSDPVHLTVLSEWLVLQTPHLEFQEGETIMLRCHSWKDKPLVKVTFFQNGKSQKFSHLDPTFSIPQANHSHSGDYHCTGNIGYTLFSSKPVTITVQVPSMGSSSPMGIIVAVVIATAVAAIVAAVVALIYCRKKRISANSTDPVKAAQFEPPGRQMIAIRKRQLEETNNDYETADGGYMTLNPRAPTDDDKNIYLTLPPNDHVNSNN
Protocol: (§2) The interaction of the unmodified and of conjugated antibodies with human Fc gamma receptors I (FcγRI/CD64), with human Fc gamma receptors IIa (FcγRIIa/CD32a), with inhibitory human Fc gamma receptors IIb (FcγRIIb/CD32b), and with human Fc gamma receptors III FcγRIIIa/CD16 were measured by ELISA.
(§3) Briefly, Corning high-binding half-area plates (Fisher Scientific, Reinach, Switzerland) were coated overnight at 4° C. with 25 μl of unmodified and of conjugated anti-PD1 antibodies at 2.5 μg/ml in PBS. […] Plates surfaces were blocked with 25 μl of PBS-0.02% Tween20-1% BSA at 37° C. during 1 h. […] Twenty-five microliters of a 1/500 HRP-anti-His antibody in PBS—0.02% Tween20—0.1% BSA (R&D systems, anti-HIS—HRP Ab, #MAB050H) were added to each well and plates were incubated at Room Temperature during 1 h. […] ELISA signal was then measured at 450 nm on an EnSpire plate reader from Perkin Elmer (Schwerzenbach, Switzerland).

human PD-L1/B7-H1 = biological target: T3, human PD-L1/B7-H1 (Homo sapiens, UniProt Q9NZQ7); assay: PD-L1 binding ELISA assay (Example 5); settings: biotinylated human PD-L1
T3 construct: purchased ACROBiosystems PD1-H82E5-25UG
Protocol: as §1

[2] = biological target: T4, human Fc gamma receptors III FcγRIIIa/CD16 (Homo sapiens, UniProt P08637); assay: Human FcγR binding ELISA, FcγRIIIa/CD16 (Example 8); settings: ELISA binding affinity
T4 construct: purchased R&D systems 4325-FC-050
Protocol: as §2, §3

[3] = biological target: T5, human Fc gamma receptors I (FcγRI/CD64) (Homo sapiens, UniProt P12314); assay: Human FcγR binding ELISA, FcγRI/CD64 (Example 8); settings: ELISA binding affinity
T5 construct: purchased R&D systems 1257-FC-050
Protocol: as §2, §3

[4] = biological target: T6, human Fc gamma receptors IIb (FcγRIIb/CD32b) (Homo sapiens, UniProt P31994); assay: Human FcγR binding ELISA, FcγRIIb/CD32b (Example 8); settings: ELISA binding affinity
T6 construct: purchased R&D systems AVI1875-050
T6 sequence (P31994 43-310): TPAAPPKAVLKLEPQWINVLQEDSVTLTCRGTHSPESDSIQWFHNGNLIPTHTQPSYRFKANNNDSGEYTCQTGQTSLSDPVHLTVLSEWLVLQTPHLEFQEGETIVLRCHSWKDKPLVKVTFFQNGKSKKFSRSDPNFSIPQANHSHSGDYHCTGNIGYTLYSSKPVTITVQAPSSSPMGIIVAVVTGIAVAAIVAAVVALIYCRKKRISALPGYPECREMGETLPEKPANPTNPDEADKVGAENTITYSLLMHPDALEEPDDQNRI
Protocol: as §2, §3

[5] = biological target: T7, human neonatal Fc receptor (FcRn) (Homo sapiens, UniProt P55899); assay: Human FcRn binding AlphaLISA at pH 6 (Example 9)
T7 construct: purchased Perkin Elmer AL3095C
Protocol: The interaction of the unmodified and of conjugated anti-PD1 antibodies with the human neonatal Fc receptor (FcRn) at pH 6 was measured using the AlphaLISA® Human FcRn Binding Kit (AL3095C) from Perkin Elmer (Schwerzenbach, Switzerland). […] When reference IgG binds to FcRn, donor and acceptor beads come into proximity enabling the transfer of singlet oxygen that trigger a cascade of energy transfer reactions in the acceptor beads, resulting in a sharp peak of light emission at 615 nm. Addition of a free IgG antibodies into the AlphaLISA® mixture creates a competition for the binding of FcRn to the reference antibody resulting in a loss of signal.
After 90 min at 23° C. in the dark, AlphaLISA® signal was measured on an EnSpire plate reader (Excitation at 680 nm, Emission at 615 nm) from Perkin Elmer (Schwerzenbach, Switzerland).

NK92 cells [6] = assay: Cellular IL-18 Binding Protein resistance assay in NK92 cells (Example 13); format: cell-based, human; settings: IL-18BP-mediated inhibition of IFNγ secretion, IL-18 analyte 1 nM
Protocol: The NK cell line NK-92 derived from a patient with lymphoma (ATCC, Cat #CR^L-2407) was cultured in αMEM medium supplemented with 20% FCS-Glutamax, 25 μM B-mercaptoethanol, and 100 IU/ml of recombinant Human Interleukin-2 (IL-2). On the day of experiment, cells were harvested and washed with αMEM medium without IL-2. After counting, cells were seeded at 100 000 cells/well in a 384 well titer plate and incubated at 37° C./5% CO2. Sixteen 2-fold serial dilutions of Fc fused human IL-18 binding protein isoform a (IL-18BPa; R&D systems, Cat #119-BP) were prepared in αMEM medium—1 ng/ml IL-12 containing 2 nM of each IL-18 variants and were added to the NK-92 cells. Final IL-18 analytes concentration was 1 nM and final IL-18BPa concentrations ranged from to 566 nM down to 17 pM.
(§4) After 16-20 h incubation at 37° C./5% CO2, 5 μl of supernatant were carefully transferred to a 384 microwells OPTIplate (Perkin Elmer; Cat #6007270) and Interferon-gamma (IFNγ) levels measured using the Human IFNγ AlphaLISA Assay Kit (Perkin Elmer, Cat #AL217C). […] AlphaLisa signal was then measured on an Enspire plate reader (Perkin Elmer) using 680 and 615 nm as excitation and emission wavelengths respectively. Half maximal inhibitory concentration (IC50) was calculated based on a variable slope, four parameter analysis using GraphPad PRISM software.

[7] = test system: parental PD-1 negative KG-1 cells; assay: IFN gamma secretion assay in parental PD-1 negative KG-1 cells (Example 11); format: cell-based, human; settings: IFNγ secretion
Protocol: (§5) The KG-1 cell line was used to generate a PD-1 expressing cell line and furthermore, to measure IFNγ release upon incubation with IL-18 variants and corresponding IL-18 immunocytokines.
(§6) IFNγ release was assessed in PD-1 positive (transduced) KG-1 cells, as well as in the parental PD-1 negative cells. 0.5×10^5 cells were seeded into a 96-well U-bottom plate in culture media (RPMI, 10% FBS, 1% L-Glutamine) and stimulated with IL-18 variants/ICs for 20-24 h. The test items were diluted to 100 nM in culture medium, followed by 7 10-fold serial dilutions. The lowest concentration assessed was […]. After incubation, IFNγ release was measured using the LEGENDplex custom human mix and match KIT (Biolegend LEGENDplex™ Human IFN-γ Capture Bead B5, 13X #740942, LEGENDplex™ HU Essential Immune Response Panel Detection Abs, #740931, LEGENDplex™ Buffer Set A #740368). To this end, cell culture supernatant was collected and diluted 1:1 with Assay Buffer. Fluorescence measurements were done with a Quanteon Flow Cytometer from Acea Biosciences. For analysis, MFI values (median fluorescence intensity) were exported and plotted against concentrations used. The EC50 values (half maximal effective concentration) were calculated based on a variable slope and four parameter analysis using GraphPad PRISM software version 9.

[8] = biological target: T8, human IL-18 Binding Protein (IL-18BP) (Homo sapiens, UniProt O95998); assay: IL-18 Binding Protein alphaLISA assay (Example 12); settings: human IL-18BP
T8 sequence (O95998 31-194): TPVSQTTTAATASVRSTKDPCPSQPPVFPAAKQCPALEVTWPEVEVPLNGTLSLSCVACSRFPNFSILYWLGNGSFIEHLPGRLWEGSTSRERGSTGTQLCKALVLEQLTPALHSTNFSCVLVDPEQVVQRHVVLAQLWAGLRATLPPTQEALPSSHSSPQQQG
Protocol: Wild type or modified IL-18 polypeptides samples were diluted at 5.6 μM in a solution of 1× alphaLISA Immunoassay Buffer provided in the alphaLISA IFNγ Detection kit and were diluted applying 3-fold serial dilutions down to […] in 384 deep well plates. A solution of 10 ng/ml of human IL-18BP-His was prepared with 1×alphaLISA Immunoassay Buffer. IL-18/IL-18BP complex formation was performed incubating 30 μl of IL-18BP solution to IL-18 sample titrations for 1 h at 20° C. IL-18BP standard was prediluted from stock solution supplied in alphaLISA IFNγ Detection kit at 100 ng/ml with 1×alphaLISA Buffer and titration prepared from applying 2-fold serial dilutions. The following solutions were prepared: a 50 μg/ml solution of anti-IL-18BP alphaLISA Acceptor beads, a 5 nM solution of biotinylated anti-IL18BP antibody and a 80 μg/ml light-protected solution of Streptavidin Donor beads in 1×alphaLISA Immunoassay Buffer. […]
5 μl of Biotinylated anti-IL-18BP antibody were added, followed by a short centrifugation step at 150 g, and incubated for 60 minutes at 20° C. under shaking at 750 rpm. […] AlphaLisa signal was then measured on an Enspire plate reader (Perkin Elmer) using 680 and 615 nm as excitation and emission wavelengths respectively. […]

NK92 cells [9] = assay: IFN gamma secretion assay in NK92 cells (Example 10); format: cell-based, human; settings: IFNγ secretion, 1 ng/ml IL-12
Protocol: The IFNγ-secretion stimulating activity of the unconjugated IL-18 variants and corresponding IL-18 immunocytokines was evaluated on NK92 cell line. The NK cell line NK-92 derived from a patient with lymphoma (ATCC, Cat #CRL-2407) was cultured in aMEM medium supplemented with 12.5% FCS, 12.5% horse serum (HS), 50 uM B-mercaptoEthanol, and 2 ng/ml of recombinant Human Interleukin-2 (IL-2).
On the day of experiment, cells were harvested and washed with aMEM medium without IL-2 and resuspended in medium (w/o IL-2) containing 1 ng/ml of recombinant human Interleukin-12 (SinoBiologicals, Cat #CT011-H08H). After counting, cells were seeded at 100 000 cells/well in a 384 well titer plate and incubated at 37° C./5% CO2. Sixteen 4-fold serial dilutions of IL-18 analytes were prepared in aMEM medium—1 ng/ml IL-12 and were added to the NK-92 cells. […]
as §4, with “OPTIPlate” for “OPTIplate”, “effective” for “inhibitory”, “(EC50)” for “(IC50)”

[10] = test system: PD-1 positive (transduced) KG-1 cells; assay: IFN gamma secretion assay in PD-1 transduced KG-1 cells (Example 11); format: cell-based, human
Protocol: as §5
PD-1 expressing cell line generation: Briefly, KG-1 cells were transduced using lentiviral particles carrying the human PD-1 gene (PDCD1 NM_005018; Origene, CAT #: RC210364L3V) at a MOI (Multiplicity of Infection) of 30. Spinfection was performed at 1260 g during 90 min at 37° C. in the presence of 5 μg/ml of Polybrene and 10 mM of HEPES in complete culture media (RPMI, 10% FBS, 1% L-Glutamine). Five days after transduction, puromycin at a final concentration of 1 ug/ml was added to select for PD-1 positive cells. For culture maintenance, puromycin concentration was decreased to 0.5 μg/ml. Stable and homogenous expression of PD-1 was verified by surface staining (BD Pharmingen, #557860).
as §6

T5 sequence (P12314 16-374): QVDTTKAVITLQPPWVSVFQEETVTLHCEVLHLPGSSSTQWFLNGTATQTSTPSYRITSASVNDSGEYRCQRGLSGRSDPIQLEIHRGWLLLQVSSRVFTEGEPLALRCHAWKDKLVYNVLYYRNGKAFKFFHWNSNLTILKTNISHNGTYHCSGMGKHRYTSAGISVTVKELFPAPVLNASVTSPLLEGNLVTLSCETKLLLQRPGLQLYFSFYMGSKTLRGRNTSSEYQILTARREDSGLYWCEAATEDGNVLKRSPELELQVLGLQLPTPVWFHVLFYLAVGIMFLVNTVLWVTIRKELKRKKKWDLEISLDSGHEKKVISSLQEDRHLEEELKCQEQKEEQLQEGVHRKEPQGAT
T3 sequence (Q9NZQ7 19-290): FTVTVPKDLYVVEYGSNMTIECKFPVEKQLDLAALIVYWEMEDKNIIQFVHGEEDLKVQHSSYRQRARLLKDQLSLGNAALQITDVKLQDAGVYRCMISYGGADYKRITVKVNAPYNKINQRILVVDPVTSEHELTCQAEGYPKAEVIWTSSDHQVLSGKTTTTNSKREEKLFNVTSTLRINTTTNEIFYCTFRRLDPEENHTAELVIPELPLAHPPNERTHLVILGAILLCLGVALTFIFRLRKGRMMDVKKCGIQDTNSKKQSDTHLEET
T1 sequence (Q15116 25-288): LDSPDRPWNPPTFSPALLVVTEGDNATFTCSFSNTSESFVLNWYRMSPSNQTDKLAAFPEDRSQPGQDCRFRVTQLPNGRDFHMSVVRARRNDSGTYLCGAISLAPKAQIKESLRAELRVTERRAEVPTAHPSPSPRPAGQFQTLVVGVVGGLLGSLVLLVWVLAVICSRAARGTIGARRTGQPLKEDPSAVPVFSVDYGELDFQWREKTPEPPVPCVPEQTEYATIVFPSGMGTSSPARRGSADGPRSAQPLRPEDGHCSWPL
T4 sequence (P08637 17-254): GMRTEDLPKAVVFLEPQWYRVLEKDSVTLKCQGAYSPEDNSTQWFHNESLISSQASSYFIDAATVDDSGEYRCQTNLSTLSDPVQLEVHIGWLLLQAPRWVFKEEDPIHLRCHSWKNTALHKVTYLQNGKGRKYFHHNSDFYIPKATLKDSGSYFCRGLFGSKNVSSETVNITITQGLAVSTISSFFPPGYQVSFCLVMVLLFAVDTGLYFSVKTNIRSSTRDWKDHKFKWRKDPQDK

Kd (human PD-1/CD279) [nM] | Kd [1] [nM] | Kd (human PD-L1/B7-H1) [nM] | Kd [2] [nM] | Kd [3] [nM] | Kd [4] [nM] | Kd [5] [nM] | IC50 (NK92 cells [6]) [nM] | Kd [8] [nM] | EC50 (NK92 cells [9]) [nM] | EC50 ([10]; IFNγ secretion, PD-1 transduced KG-1) [nM] | PD-1^neg/PD-1^pos EC50 ratio ([10]; KG-1 cells) | Substance | EC50 [7] [nM]
> 100 | 1370 | 0.443 | 356 | 9.17 | > 10000 | 6.4 | – | – | – | – | – | Atezolizumab/Tecentriq | –
– | – | – | – | – | – | – | 0.282 | 0.103 | 0.103 | 0.135 | 1.2 | SEQ ID NO: 31: IL-18 polypeptide: C38A, C76A, C127A | 0.148
